# Residue numbers refer to the chain shown, from its start.
# T1: pig TF ECD-His (TF-His) protein (pig (Sus scrofa))
# T1 construct: also called pig TF-His; pTF
# T1 chain: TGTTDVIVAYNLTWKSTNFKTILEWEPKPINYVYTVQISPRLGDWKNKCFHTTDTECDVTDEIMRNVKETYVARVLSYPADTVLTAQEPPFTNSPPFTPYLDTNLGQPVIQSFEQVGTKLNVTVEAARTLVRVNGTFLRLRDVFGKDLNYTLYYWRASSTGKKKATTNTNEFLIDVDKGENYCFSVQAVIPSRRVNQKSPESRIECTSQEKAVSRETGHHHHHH
# B1: anti-TF antibody 25A (antibody, human IgG1, V domains shown)
# VH: QVQLVQSGAEVKKPGASVKVSCKASGYTFDVYGISWVRQAPGQGLEWMGWIAPYNGNTNYAQKLQGRVTMTTDTSTSTAYMELRSLRSDDTAVYYCARDAGTYSPFGYGMDVWGQGTTVTVSS
# VL: DIQMTQSPSTLSASVGDRVTITCRASQSISSWLAWYQQKPGKAPKLLIYKASSLESGVPSRFSGSGSGTEFTLTISSLQPDDFATYYCQQFQSLPPFTFGGGTKVEIK
# notes: Human IgG1
# B2: 25A-vc-MMAE (antibody, IgG1, V domains shown)
# VH: B1 VH
# VL: B1 VL
# modifications: MC-vc-PAB-MMAE on cysteines of the partially reduced antibody (chain and positions not stated), DAR 3-4
# notes: Antibody-drug conjugate (primary ADC) of the IgG1 antibody; also called 25A ADC; 25A conjugated to MC-vc-PAB-MMAE
# B3: anti-TF antibody 25A3 (antibody, human IgG1, V domains shown)
# VH: B1 VH with N55S
# VL: B1 VL with R24Q, S30N, S31N, S52Y, S53N, Q90L
# notes: Human IgG1
# B4: anti-TF antibody 25G1 (antibody, human IgG1, V domains shown)
# VH: B1 VH with D30R, V31S, I51V, N55S, F106Y
# VL: B1 VL with Q27H, S30D, S53Y, Q90L
# notes: Human IgG1
# B5: 25A3-vc-MMAE (antibody, IgG1, V domains shown)
# VH: B1 VH with N55S
# VL: B1 VL with R24Q, S30N, S31N, S52Y, S53N, Q90L
# modifications: MC-vc-PAB-MMAE on cysteines of the partially reduced antibody (chain and positions not stated), DAR 3-4
# notes: Antibody-drug conjugate (primary ADC) of the IgG1 antibody; also called 25A3 ADC; 25A3 MMAE ADC
# B6: anti-TF antibody 25G1 conjugated to MC-vc-PAB-MMAE (antibody, IgG1, V domains shown)
# VH: B1 VH with D30R, V31S, I51V, N55S, F106Y
# VL: B1 VL with Q27H, S30D, S53Y, Q90L
# modifications: MC-vc-PAB-MMAE on cysteines of the partially reduced antibody (chain and positions not stated), DAR 3-4
# notes: Antibody-drug conjugate (primary ADC) of the IgG1 antibody; also called 25G1 ADC
# B7: tisotumab vedotin (TF-011) ADC (antibody, V domains shown)
# VH: EVQLLESGGGLVQPGGSLRLSCAASGFTFSNYAMSWVRQAPGKGLEWVSSISGSGDYTYYTDSVKGRFTISRDNSKNTLYLQMNSLRAEDTAVYYCARSPWGYYLDSWGQGTLVTVSS
# VL: DIQMTQSPPSLSASAGDRVTITCRASQGISSRLAWYQQKPEKAPKSLIYAASSLQSGVPSRFSGSGSGTDFTLTISSLQPEDFATYYCQQYNSYPYTFGQGTKLEIK
# modifications: MC-vc-PAB-MMAE on cysteines of the partially reduced antibody (chain and positions not stated), DAR 3-4
# B8: anti-TF antibody 43D7 (antibody, human IgG1, V domains shown)
# VH: QVQLQQWGAGLLKPSETLSLTCAVYGGSLSGYYWSWIRQPPGKGLEWIGEIGASGSTRYNPSLKSRVTISVDTSKNQFSLKLSSVTAADTAVYYCARDTPYYYEGGYYYYMDVWGKGTTVTVSS
# VL: EIVLTQSPGTLSLSPGERATLSCRASDSVDSSYLAWYQQKPGQAPRLLIYGAFSRANGIPDRFSGSGSGTDFTLTISRLEPEDFAVYYCQQAGVVPYTFGGGTKVEIK
# notes: Human IgG1
# B9: anti-TF antibody 43D7 conjugated to MC-vc-PAB-MMAE (antibody, IgG1, V domains shown)
# VH: B8 VH
# VL: B8 VL
# modifications: MC-vc-PAB-MMAE on cysteines of the partially reduced antibody (chain and positions not stated), DAR 3-4
# B10: anti-TF antibody 43B1 conjugated to MC-vc-PAB-MMAE (antibody, IgG1, V domains shown)
# VH: QVQLQESGPGLVKPSQTLSLTCTVSGGSISSGQYWSWIRQHPGKGLEWIGEIYYSGSTRYNPSLKSRVTISVDTSKNQFSLKLSSVTAADTAVYYCARDAPYYYGGGYYYYMDVWGKGTTVTVSS
# VL: B8 VL with D27E, F53S, S54T, A56Q, N57T
# modifications: MC-vc-PAB-MMAE on cysteines of the partially reduced antibody (chain and positions not stated), DAR 3-4
# B11: 43Ea-vc-MMAE (antibody, IgG1, V domains shown)
# VH: B10 VH with A100T, G105D
# VL: B8 VL with D27Q, D30S, F53S, N57T, A92V
# modifications: MC-vc-PAB-MMAE on cysteines of the partially reduced antibody (chain and positions not stated), DAR 3-4
# B12: anti-TF antibody 25G (antibody, human IgG1, V domains shown)
# VH: B1 VH with D30R, V31S, I51V, F106Y
# VL: B1 VL
# notes: Human IgG1
# B13: anti-TF antibody 25G9 (antibody, human IgG1, V domains shown)
# VH: B1 VH with D30R, V31S, I51V, N55S, F106Y
# VL: B1 VL with R24Q, S30D, K50S, S53Y, Q90R
# notes: Human IgG1
# B14: anti-TF antibody 25A5-T (antibody, human IgG1, V domains shown)
# VH: B1 VH with V31A, N55S
# VL: B1 VL with Q27E, S31N, S52Y, S56Y, S93K
# notes: Human IgG1
# B15: anti-TF antibody 25A5 (antibody, human IgG1, V domains shown)
# VH: B1 VH with N55S
# VL: B1 VL with Q27E, S31N, S52Y, S56Y, S93K
# notes: Human IgG1
# B16: anti-TF antibody 43D8 (antibody, human IgG1, V domains shown)
# VH: B8 VH
# VL: B8 VL with D27Q, D30S, Y33F, F53Y, N57T
# notes: Human IgG1
# Molecular target: T2, human Tissue Factor (hTF) (human, UniProt P13726 33-295)
# Experiment: cell-based or functional assay
Binder,"IC50, cell viability of A431 cells, Secondary ADC (antibody with anti-human Fc Fab:MMAF), Continuous (FIG. 18B)","IC50, cell viability of A431 cells, Primary ADC, Continuous (FIG. 20A)","IC50, cell viability of HPAF-II cells, Primary ADC, Continuous (FIG. 22E)","IC50, cell viability of MDA-MB-231 cells, Primary ADC, Continuous (FIG. 22D)"
B1,0.11 nM,,,
B2,,0.09 nM,0.06 nM,0.14 nM
B3,0.09 nM,,,
B4,0.08 nM,,,
B5,,0.07 nM,0.05 nM,0.11 nM
B6,,0.06 nM,0.04 nM,0.09 nM
B7,,0.05 nM,,
B8,0.1 nM,,,
B9,,0.06 nM,0.05 nM,0.14 nM
B10,,0.08 nM,0.05 nM,0.14 nM
B11,,0.09 nM,0.06 nM,0.15 nM

# Molecular target: T2, human Tissue Factor (hTF)
# Experiment: cell-based or functional assay
# Remark: another data set of the same source
Binder,"IC50, cell viability of A431 cells, Primary ADC, 4 hr, followed by washout (FIG. 20B)","IC50, cell viability of A431 cells, Primary ADC, 4 hr, followed by washout, absence of FVIIa (FIG. 21A)"
B2,0.35 nM,0.18 nM
B5,0.19 nM,0.12 nM
B6,0.19 nM,0.1 nM
B7,0.17 nM,
B9,0.28 nM,0.14 nM
B10,0.36 nM,0.19 nM
B11,0.43 nM,0.24 nM

# Molecular target: T1, pig TF ECD-His (TF-His) protein
# Experiment: Biacore; antibody captured by anti-human IgG on CM5 chip, titration of pig TF-His, 1:1 model
# Protocol: The ability of certain antibodies was tested for binding to pig TF. For pig TF Biacore-based measurements, a given anti-TF antibody was captured by an anti-human IgG antibody covalently coupled to a CM5 chip (GE Healthcare Bio-Sciences). Association between the anti-TF antibodies and a five-point three-fold titration of pig TF-His starting at 100 nM was measured for 180 to 240 sec. Subsequently, dissociation between the anti-TF antibody and TF-His was measured for 1800 sec. Kinetic data was analyzed and fitted globally using a 1:1 binding model.
row,Binder,Kd
1,B1,18.7 nM
2,B3,5.5 nM
3,B12,26 nM
4,B4,2.6 nM
5,B13,3.3 nM
6,B14,4.5 nM
7,B15,5.2 nM
8,B8,8.8 nM
9,B16,19.2 nM

# Molecular target: T3, rabbit TF ECD-His (TF-His) protein (rabbit (Oryctolagus cuniculus), UniProt P24055 33-250)
# T3 construct: also called rabbit TF-His
# Experiment: Biacore; antibody captured by anti-human IgG on CM5 chip, titration of rabbit TF-His, 1:1 model
# Protocol: The ability of certain antibodies was tested for binding to rabbit TF. For rabbit TF Biacore-based measurements, a given anti-TF antibody was captured by an anti-human IgG antibody covalently coupled to a CM5 chip (GE Healthcare Bio-Sciences). Association between the anti-TF antibodies and a five-point three-fold titration of rabbit TF-His starting at 100 nM was measured for 180 to 240 sec. Subsequently, dissociation between the anti-TF antibody and TF-His was measured for 1800 sec. Kinetic data was analyzed and fitted globally using a 1:1 binding model.
# T3 sequence (P24055 other isoform, or with tags, fused parts or gaps): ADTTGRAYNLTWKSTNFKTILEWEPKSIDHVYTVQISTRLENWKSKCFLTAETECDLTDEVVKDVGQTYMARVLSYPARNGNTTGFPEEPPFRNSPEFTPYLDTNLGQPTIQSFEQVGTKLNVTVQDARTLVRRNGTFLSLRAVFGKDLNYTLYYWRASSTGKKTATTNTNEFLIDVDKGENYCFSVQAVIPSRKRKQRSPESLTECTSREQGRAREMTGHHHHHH
row,Binder,Kd
1,B1,50.5 nM
2,B12,75.5 nM
3,B4,3.6 nM
4,B13,4.2 nM
5,B14,5.4 nM
6,B15,5.4 nM
7,B8,6.8 nM
8,B16,7.7 nM

# Molecular target: T4, human Tissue Factor on human TF-positive cells (human, UniProt P13726 33-295)
# T4 construct: also called hTF; CD142
# Experiment: flow cytometry, titration of the MC-vc-PAB-MMAE ADC on HCT-116 cells (human TF), 4-parameter fit of MFI
row,Binder,EC50
1,B2,0.34 nM
2,B5,0.17 nM
3,B6,0.17 nM

# — patent US20250361322A1 (ICONIC THERAPEUTICS, published 2025)
